Measurements: publication PMC3823998, “Structural and Functional Characterization of the Redβ Recombinase from Bacteriophage λ” (PLoS ONE, 2013)
Residue numbers refer to the chain shown, from its start.

Legend:
Test in all cases: EMSA; glutaraldehyde-fixed; ssDNA EMSA: 10 nM DNA, 50 mM potassium phosphate pH 6.0, 5 mM EDTA, 5% glycerol, 0.1 mg/ml BSA, 37°C, 40 min, then 0.1% glutaraldehyde; second-strand EMSA: 5 nM each strand, 20 mM Tris-HCl pH 7.5, 5 mM MgCl2, 1 mM DTT, 0.1 mg/ml BSA, 37°C
Conditions in all cases: protein: recombinant; tags: His6 removed; N-terminal GSH left; label: 5' Cy3
Redβ K69A = molecular target: T1, Redβ K69A (Bacteriophage λ (Enterobacteria phage λ), UniProt P03698 1-261, K69A)
T1 sequence: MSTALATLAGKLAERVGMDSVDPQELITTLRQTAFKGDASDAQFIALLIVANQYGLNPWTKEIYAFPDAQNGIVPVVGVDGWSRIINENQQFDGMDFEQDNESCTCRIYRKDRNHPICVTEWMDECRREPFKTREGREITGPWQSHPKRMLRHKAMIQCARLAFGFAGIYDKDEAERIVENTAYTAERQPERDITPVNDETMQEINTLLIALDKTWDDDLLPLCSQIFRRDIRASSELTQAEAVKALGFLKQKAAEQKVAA

Redβ R149A = molecular target: T2, Redβ R149A (Bacteriophage λ (Enterobacteria phage λ), UniProt P03698 1-261, R149A)
T2 sequence: T1 sequence with A69K, R149A

Redβ R161A = molecular target: T3, Redβ R161A (Bacteriophage λ (Enterobacteria phage λ), UniProt P03698 1-261, R161A)
T3 sequence: T1 sequence with A69K, R161A

Redβ V79A = molecular target: T4, Redβ V79A (Bacteriophage λ (Enterobacteria phage λ), UniProt P03698 1-261, V79A)
T4 sequence: T1 sequence with A69K, V79A

Redβ K172A = molecular target: T5, Redβ K172A (Bacteriophage λ (Enterobacteria phage λ), UniProt P03698 1-261, K172A)
T5 sequence: T1 sequence with A69K, K172A

Redβ G78A = molecular target: T6, Redβ G78A (Bacteriophage λ (Enterobacteria phage λ), UniProt P03698 1-261, G78A)
T6 sequence: T1 sequence with A69K, G78A

TGCGGATGGCTTAGAGCTTAATTGCTGAATCTGGTGCTGTAGCTCAACAT (ssDNA) [50-minus ssDNA]
binding signal (Redβ K69A): 94 % of WT binding at 3 µM protein
binding signal (Redβ R149A): 44 % of WT binding at 3 µM protein
binding signal (Redβ R161A): 11 % of WT binding at 3 µM protein
binding signal (Redβ V79A): 21 % of WT binding at 3 µM protein
binding signal (Redβ K172A): 76 % of WT binding at 3 µM protein
binding signal (Redβ G78A): 33 % of WT binding at 3 µM protein
